We go through 6 molecules from patent US20210139548A1 (published 2021).

*1 amine or outer side, *2 acyl side, *3 side chain or, on linkers, in order; H or OH if unused. Side-chain parts run from the residue outwards. The star is where a group is joined. C18 diacid = O=C(O)CCCCCCCCCCCCCCCCC(=O)*; γGlu = O=C(O)[C@H](CCC(=O)[*:2])N[*:1]; Isovaleryl = CC(C)CC(=O)*; AEEA = NCCOCCOCC(=O)O

The chains are these.
T1: human neuropeptide Y2 receptor (human, UniProt P49146 1-381)
T1 construct: whole, on cells; also called hNPY2 receptor; hNPY2-R
T1 sequence (looked up): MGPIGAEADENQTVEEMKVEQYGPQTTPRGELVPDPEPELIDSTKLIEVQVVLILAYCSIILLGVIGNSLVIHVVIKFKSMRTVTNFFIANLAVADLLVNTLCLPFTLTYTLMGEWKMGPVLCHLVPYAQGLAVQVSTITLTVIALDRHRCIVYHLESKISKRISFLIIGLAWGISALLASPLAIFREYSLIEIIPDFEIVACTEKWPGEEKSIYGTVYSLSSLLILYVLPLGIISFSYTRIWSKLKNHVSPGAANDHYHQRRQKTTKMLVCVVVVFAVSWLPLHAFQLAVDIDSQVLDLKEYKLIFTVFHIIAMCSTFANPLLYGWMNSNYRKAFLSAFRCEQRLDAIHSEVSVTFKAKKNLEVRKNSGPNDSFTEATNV

B1: Compound 135 (peptide)
peptide: Isovaleryl-APEK([AEEA-AEEA-γGlu-C18 diacid])PEADASPEELQRYYVELRHYYNWLTRQRY-NH2
SMILES: CC(C)CC(=O)N[C@@H](C)C(=O)N1CCC[C@H]1C(=O)N[C@@H](CCC(=O)O)C(=O)N[C@@H](CCCCNC(=O)COCCOCCNC(=O)COCCOCCNC(=O)CC[C@H](NC(=O)CCCCCCCCCCCCCCCCC(=O)O)C(=O)O)C(=O)N1CCC[C@H]1C(=O)N[C@@H](CCC(=O)O)C(=O)N[C@@H](C)C(=O)N[C@@H](CC(=O)O)C(=O)N[C@@H](C)C(=O)N[C@@H](CO)C(=O)N1CCC[C@H]1C(=O)N[C@@H](CCC(=O)O)C(=O)N[C@@H](CCC(=O)O)C(=O)N[C@@H](CC(C)C)C(=O)N[C@@H](CCC(N)=O)C(=O)N[C@@H](CCCNC(=N)N)C(=O)N[C@@H](Cc1ccc(O)cc1)C(=O)N[C@@H](Cc1ccc(O)cc1)C(=O)N[C@H](C(=O)N[C@@H](CCC(=O)O)C(=O)N[C@@H](CC(C)C)C(=O)N[C@@H](CCCNC(=N)N)C(=O)N[C@@H](Cc1c[nH]cn1)C(=O)N[C@@H](Cc1ccc(O)cc1)C(=O)N[C@@H](Cc1ccc(O)cc1)C(=O)N[C@@H](CC(N)=O)C(=O)N[C@@H](Cc1c[nH]c2ccccc12)C(=O)N[C@@H](CC(C)C)C(=O)N[C@H](C(=O)N[C@@H](CCCNC(=N)N)C(=O)N[C@@H](CCC(N)=O)C(=O)N[C@@H](CCCNC(=N)N)C(=O)N[C@@H](Cc1ccc(O)cc1)C(N)=O)[C@@H](C)O)C(C)C
B2: Compound 138 (peptide)
peptide: Isovaleryl-APAK([AEEA-AEEA-γGlu-C18 diacid])PEEDASPEELQQYYVSLRHYYNWLTRQRY-NH2
SMILES: CC(C)CC(=O)N[C@@H](C)C(=O)N1CCC[C@H]1C(=O)N[C@@H](C)C(=O)N[C@@H](CCCCNC(=O)COCCOCCNC(=O)COCCOCCNC(=O)CC[C@H](NC(=O)CCCCCCCCCCCCCCCCC(=O)O)C(=O)O)C(=O)N1CCC[C@H]1C(=O)N[C@@H](CCC(=O)O)C(=O)N[C@@H](CCC(=O)O)C(=O)N[C@@H](CC(=O)O)C(=O)N[C@@H](C)C(=O)N[C@@H](CO)C(=O)N1CCC[C@H]1C(=O)N[C@@H](CCC(=O)O)C(=O)N[C@@H](CCC(=O)O)C(=O)N[C@@H](CC(C)C)C(=O)N[C@@H](CCC(N)=O)C(=O)N[C@@H](CCC(N)=O)C(=O)N[C@@H](Cc1ccc(O)cc1)C(=O)N[C@@H](Cc1ccc(O)cc1)C(=O)N[C@H](C(=O)N[C@@H](CO)C(=O)N[C@@H](CC(C)C)C(=O)N[C@@H](CCCNC(=N)N)C(=O)N[C@@H](Cc1c[nH]cn1)C(=O)N[C@@H](Cc1ccc(O)cc1)C(=O)N[C@@H](Cc1ccc(O)cc1)C(=O)N[C@@H](CC(N)=O)C(=O)N[C@@H](Cc1c[nH]c2ccccc12)C(=O)N[C@@H](CC(C)C)C(=O)N[C@H](C(=O)N[C@@H](CCCNC(=N)N)C(=O)N[C@@H](CCC(N)=O)C(=O)N[C@@H](CCCNC(=N)N)C(=O)N[C@@H](Cc1ccc(O)cc1)C(N)=O)[C@@H](C)O)C(C)C
B3: Compound 139 (peptide)
peptide: Isovaleryl-APEK([AEEA-AEEA-γGlu-C18 diacid])PEEESSPEELQRYYVSLRHYYNWLTRQRY-NH2
SMILES: CC(C)CC(=O)N[C@@H](C)C(=O)N1CCC[C@H]1C(=O)N[C@@H](CCC(=O)O)C(=O)N[C@@H](CCCCNC(=O)COCCOCCNC(=O)COCCOCCNC(=O)CC[C@H](NC(=O)CCCCCCCCCCCCCCCCC(=O)O)C(=O)O)C(=O)N1CCC[C@H]1C(=O)N[C@@H](CCC(=O)O)C(=O)N[C@@H](CCC(=O)O)C(=O)N[C@@H](CCC(=O)O)C(=O)N[C@@H](CO)C(=O)N[C@@H](CO)C(=O)N1CCC[C@H]1C(=O)N[C@@H](CCC(=O)O)C(=O)N[C@@H](CCC(=O)O)C(=O)N[C@@H](CC(C)C)C(=O)N[C@@H](CCC(N)=O)C(=O)N[C@@H](CCCNC(=N)N)C(=O)N[C@@H](Cc1ccc(O)cc1)C(=O)N[C@@H](Cc1ccc(O)cc1)C(=O)N[C@H](C(=O)N[C@@H](CO)C(=O)N[C@@H](CC(C)C)C(=O)N[C@@H](CCCNC(=N)N)C(=O)N[C@@H](Cc1c[nH]cn1)C(=O)N[C@@H](Cc1ccc(O)cc1)C(=O)N[C@@H](Cc1ccc(O)cc1)C(=O)N[C@@H](CC(N)=O)C(=O)N[C@@H](Cc1c[nH]c2ccccc12)C(=O)N[C@@H](CC(C)C)C(=O)N[C@H](C(=O)N[C@@H](CCCNC(=N)N)C(=O)N[C@@H](CCC(N)=O)C(=O)N[C@@H](CCCNC(=N)N)C(=O)N[C@@H](Cc1ccc(O)cc1)C(N)=O)[C@@H](C)O)C(C)C
B4: Compound 136 (peptide)
peptide: Isovaleryl-APEK([AEEA-AEEA-γGlu-C18 diacid])PEADSSPEELQRYYVSLRHYYNWLTRQRY-NH2
SMILES: CC(C)CC(=O)N[C@@H](C)C(=O)N1CCC[C@H]1C(=O)N[C@@H](CCC(=O)O)C(=O)N[C@@H](CCCCNC(=O)COCCOCCNC(=O)COCCOCCNC(=O)CC[C@H](NC(=O)CCCCCCCCCCCCCCCCC(=O)O)C(=O)O)C(=O)N1CCC[C@H]1C(=O)N[C@@H](CCC(=O)O)C(=O)N[C@@H](C)C(=O)N[C@@H](CC(=O)O)C(=O)N[C@@H](CO)C(=O)N[C@@H](CO)C(=O)N1CCC[C@H]1C(=O)N[C@@H](CCC(=O)O)C(=O)N[C@@H](CCC(=O)O)C(=O)N[C@@H](CC(C)C)C(=O)N[C@@H](CCC(N)=O)C(=O)N[C@@H](CCCNC(=N)N)C(=O)N[C@@H](Cc1ccc(O)cc1)C(=O)N[C@@H](Cc1ccc(O)cc1)C(=O)N[C@H](C(=O)N[C@@H](CO)C(=O)N[C@@H](CC(C)C)C(=O)N[C@@H](CCCNC(=N)N)C(=O)N[C@@H](Cc1c[nH]cn1)C(=O)N[C@@H](Cc1ccc(O)cc1)C(=O)N[C@@H](Cc1ccc(O)cc1)C(=O)N[C@@H](CC(N)=O)C(=O)N[C@@H](Cc1c[nH]c2ccccc12)C(=O)N[C@@H](CC(C)C)C(=O)N[C@H](C(=O)N[C@@H](CCCNC(=N)N)C(=O)N[C@@H](CCC(N)=O)C(=O)N[C@@H](CCCNC(=N)N)C(=O)N[C@@H](Cc1ccc(O)cc1)C(N)=O)[C@@H](C)O)C(C)C
B5: Compound 142 (peptide)
peptide: Isovaleryl-APEK([AEEA-AEEA-γGlu-C18 diacid])PPEEASPEELQRYYVSLRHYYNWLTRQRY-NH2
SMILES: CC(C)CC(=O)N[C@@H](C)C(=O)N1CCC[C@H]1C(=O)N[C@@H](CCC(=O)O)C(=O)N[C@@H](CCCCNC(=O)COCCOCCNC(=O)COCCOCCNC(=O)CC[C@H](NC(=O)CCCCCCCCCCCCCCCCC(=O)O)C(=O)O)C(=O)N1CCC[C@H]1C(=O)N1CCC[C@H]1C(=O)N[C@@H](CCC(=O)O)C(=O)N[C@@H](CCC(=O)O)C(=O)N[C@@H](C)C(=O)N[C@@H](CO)C(=O)N1CCC[C@H]1C(=O)N[C@@H](CCC(=O)O)C(=O)N[C@@H](CCC(=O)O)C(=O)N[C@@H](CC(C)C)C(=O)N[C@@H](CCC(N)=O)C(=O)N[C@@H](CCCNC(=N)N)C(=O)N[C@@H](Cc1ccc(O)cc1)C(=O)N[C@@H](Cc1ccc(O)cc1)C(=O)N[C@H](C(=O)N[C@@H](CO)C(=O)N[C@@H](CC(C)C)C(=O)N[C@@H](CCCNC(=N)N)C(=O)N[C@@H](Cc1c[nH]cn1)C(=O)N[C@@H](Cc1ccc(O)cc1)C(=O)N[C@@H](Cc1ccc(O)cc1)C(=O)N[C@@H](CC(N)=O)C(=O)N[C@@H](Cc1c[nH]c2ccccc12)C(=O)N[C@@H](CC(C)C)C(=O)N[C@H](C(=O)N[C@@H](CCCNC(=N)N)C(=O)N[C@@H](CCC(N)=O)C(=O)N[C@@H](CCCNC(=N)N)C(=O)N[C@@H](Cc1ccc(O)cc1)C(N)=O)[C@@H](C)O)C(C)C
B6: Compound 141 (peptide)
peptide: Isovaleryl-APEK([AEEA-AEEA-γGlu-C18 diacid])PEEAASPEELQRYYVSARHYYNWLTRQRY-NH2
SMILES: CC(C)CC(=O)N[C@@H](C)C(=O)N1CCC[C@H]1C(=O)N[C@@H](CCC(=O)O)C(=O)N[C@@H](CCCCNC(=O)COCCOCCNC(=O)COCCOCCNC(=O)CC[C@H](NC(=O)CCCCCCCCCCCCCCCCC(=O)O)C(=O)O)C(=O)N1CCC[C@H]1C(=O)N[C@@H](CCC(=O)O)C(=O)N[C@@H](CCC(=O)O)C(=O)N[C@@H](C)C(=O)N[C@@H](C)C(=O)N[C@@H](CO)C(=O)N1CCC[C@H]1C(=O)N[C@@H](CCC(=O)O)C(=O)N[C@@H](CCC(=O)O)C(=O)N[C@@H](CC(C)C)C(=O)N[C@@H](CCC(N)=O)C(=O)N[C@@H](CCCNC(=N)N)C(=O)N[C@@H](Cc1ccc(O)cc1)C(=O)N[C@@H](Cc1ccc(O)cc1)C(=O)N[C@H](C(=O)N[C@@H](CO)C(=O)N[C@@H](C)C(=O)N[C@@H](CCCNC(=N)N)C(=O)N[C@@H](Cc1c[nH]cn1)C(=O)N[C@@H](Cc1ccc(O)cc1)C(=O)N[C@@H](Cc1ccc(O)cc1)C(=O)N[C@@H](CC(N)=O)C(=O)N[C@@H](Cc1c[nH]c2ccccc12)C(=O)N[C@@H](CC(C)C)C(=O)N[C@H](C(=O)N[C@@H](CCCNC(=N)N)C(=O)N[C@@H](CCC(N)=O)C(=O)N[C@@H](CCCNC(=N)N)C(=O)N[C@@H](Cc1ccc(O)cc1)C(N)=O)[C@@H](C)O)C(C)C

The target in this assay is T1, human neuropeptide Y2 receptor. Nature of the assay: radioligand competition (125I-PYY(1-36)), hNPY2R membranes. In a few lines:
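Commercial human Y2 receptor membranes (0.5 μg protein/well) were incubated with peptide for 2 h at room temperature in 50 mM HEPES, 5 mM MgCl₂, 1 mM CaCl₂, pH 7.4, with 0.2% ovalbumin. Bound radioligand was separated on PEI-soaked GF/C filters and counted by scintillation, and IC₅₀ came from nonlinear sigmoidal regression.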
Background: Loss of bound radioactivity is the signal in a displacement assay; it reports binding, not function.
In general, Ki refers to the dissociation constant of the complex between target and ligand, obtained from inhibition or displacement. Take B1: affinity was put at a Ki of 1.31 nM. B2 gave a Ki of 1.42 nM. The value for B3 was 3.83 nM; that for B4 was 0.89 nM.

The molecule B5 showed a Ki of 1.17 nM.

For the molecule B6, affinity was put at a Ki of 3.12 nM.
